Results published in publication PMC5670201 (2017).

Target: nab-paclitaxel nanoparticles (human, UniProt P02768 25-609)
Test: BLI

B1: biotinylated bevacizumab (antibody, V domains shown)
VH: EVQLVESGGGLVQPGGSLRLSCAASGYTFTNYGMNWVRQAPGKGLEWVGWINTYTGEPTYAADFKRRFTFSLDTSKSTAYLQMNSLRAEDTAVYYCAKYPHYYGSSHWYFDVWGQGTLVTVSS
VL: DIQMTQSPSSLSASVGDRVTITCSASQDISNYLNWYQQKPGKAPKVLIYFTSSLHSGVPSRFSGSGSGTDFTLTISSLQPEDFATYYCQQYSTVPWTFGQGTKVEIK
modifications: biotin (sites not given) | biotin (sites not given)
- Kd: 4.51 µM
